Numbering of substitutions follows the chain as printed. In names and notes the source's numbering stands.
B1: DISC1 598-854 C680S/C682S/C684S/C698S/C762S/C782S/C844S (domain or fragment)
chain: GNHFFTAKDLTEEIRSLTSEREGLEGLLSKLLVLSSRNVKKLGSVKEDYNRLRREVEHQETAYETSVKENTMKYMETLKNKLSSSKSPLLGKVWEADLEASRLLIQSLQLQEARGSLSVEDERQMDDLEGAAPPIPPRLHSEDKRKTPLKVLEEFKTHLIPSLHSAGGEQKEESYILSAELGEKSEDIGKKLLYLEDQLHTAIHSHDEDLIQSLRRELQMVKETLQAMILQLQPAKEAGEREAAASSMTAGVHEAQA
B2: DISC1 598-854 C680S/C698S/C762S/C782S/C844S (domain or fragment)
chain: B1 chain with S85C, S87C
B3: DISC1 598-854 C682S/C684S/C698S/C762S/C782S/C844S (domain or fragment)
chain: B1 chain with S83C
B4: DISC1 598-854 C684S/C698S/C762S/C782S/C844S (domain or fragment)
chain: B1 chain with S83C, S85C
B5: DISC1 598-854 C680S/C682S/C698S/C762S/C782S/C844S (domain or fragment)
chain: B1 chain with S87C
B6: DISC1 598-854 C682S/C698S/C762S/C782S/C844S (domain or fragment)
chain: B1 chain with S83C, S87C
B7: DISC1 598-854 C680S/C684S/C698S/C762S/C782S/C844S (domain or fragment)
chain: B1 chain with S85C
B8: DISC1 598-854 C698S/C762S/C782S/C844S (domain or fragment)
chain: B1 chain with S83C, S85C, S87C

Target: the molecule itself
Experiment: SEC

Protein	binding result
B1	binds
B2	binds
B3	binds
B4	binds
B5	binds
B6	binds
B7	binds
B8	binds
